# Numbered stars: 1 amine (or outer) side, 2 acyl side, 3 side chain; on linkers, the order of the positions; unused ones are H or OH. Square brackets hold non-standard residues; d marks the D form. Primed or numbered codes have the meaning given here. Side chains are listed from the residue outwards. Ends that are not written are not given here. * marks the point of attachment. C20 diacid = O=C(O)CCCCCCCCCCCCCCCCCCC(=O)*; C18 diacid = O=C(O)CCCCCCCCCCCCCCCCC(=O)*; C16 diacid = O=C(O)CCCCCCCCCCCCCCC(=O)*; γGlu = O=C(O)[C@H](CCC(=O)[*:2])N[*:1]; Iva = CC[C@](C)(N)C(=O)O; PEG3′ = not defined here; Aib = CC(C)(N)C(=O)O
# T1: full-length human GIPR (GenBank NM_000164) with an N-terminal FLAG tag on HEK-293T cells (human), P48546
# T1 chain: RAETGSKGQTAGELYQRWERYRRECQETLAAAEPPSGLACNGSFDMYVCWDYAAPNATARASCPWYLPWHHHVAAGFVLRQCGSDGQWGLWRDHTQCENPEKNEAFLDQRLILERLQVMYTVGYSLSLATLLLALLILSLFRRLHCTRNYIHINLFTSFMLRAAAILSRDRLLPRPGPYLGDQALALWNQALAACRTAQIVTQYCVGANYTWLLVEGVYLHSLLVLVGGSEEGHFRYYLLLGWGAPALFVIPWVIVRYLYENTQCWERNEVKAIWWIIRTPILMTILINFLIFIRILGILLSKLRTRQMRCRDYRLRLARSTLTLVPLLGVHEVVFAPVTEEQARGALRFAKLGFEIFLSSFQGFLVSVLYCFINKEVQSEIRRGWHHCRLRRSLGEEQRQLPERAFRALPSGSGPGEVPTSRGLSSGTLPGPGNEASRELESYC
# T2: full-length human GLP-1R (GenBank NM_002062) with an N-terminal FLAG tag on HEK-293T cells (human), P43220
# T2 chain: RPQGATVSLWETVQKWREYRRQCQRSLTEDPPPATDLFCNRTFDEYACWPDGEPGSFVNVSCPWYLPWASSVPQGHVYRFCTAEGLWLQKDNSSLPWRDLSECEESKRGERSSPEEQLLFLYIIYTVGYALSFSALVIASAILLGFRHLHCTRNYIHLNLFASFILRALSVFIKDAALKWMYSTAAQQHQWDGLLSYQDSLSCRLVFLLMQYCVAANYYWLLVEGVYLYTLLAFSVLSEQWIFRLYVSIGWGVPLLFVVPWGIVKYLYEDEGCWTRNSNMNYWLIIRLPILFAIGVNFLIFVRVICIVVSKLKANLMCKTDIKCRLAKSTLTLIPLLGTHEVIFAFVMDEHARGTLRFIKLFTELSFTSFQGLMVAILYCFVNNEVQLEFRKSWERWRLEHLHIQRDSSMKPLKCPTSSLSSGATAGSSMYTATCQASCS
# B1: Compound No. 449 (peptide)
# peptide: Y[Aib]EGTFISDYSIALDR[Aib]HQ[Aib]NFVNW[Iva]LAQRPSSK([Gly-Gly-Gly-Gly-Gly-γGlu-C20 diacid])APPPS
# modifications: ends and bridges not checked
# B2: Compound No. 458 (peptide)
# peptide: Y[Aib]EGTFISDYSIALDR[Aib]HQ[Aib]NFVNW[Iva]LAQRPSSGAPK([Gly-Gly-Gly-Gly-Gly-γGlu-C20 diacid])PS
# modifications: ends and bridges not checked
# B3: Compound No. 457 (peptide)
# peptide: Y[Aib]EGTFISDYSIALDR[Aib]HQ[Aib]NFVNW[Iva]LAQRPSSGAPK([Gly-Gly-Gly-Gly-Gly-γGlu-C18 diacid])PS
# modifications: ends and bridges not checked
# B4: Compound No. 459 (peptide)
# peptide: Y[Aib]EGTFISDYSIALDR[Aib]HQ[Aib]NFVNW[Iva]LAQRPSSGAPPK([Gly-Gly-Gly-Gly-Gly-γGlu-C16 diacid])S
# modifications: ends and bridges not checked
# B5: Compound No. 461 (peptide)
# peptide: Y[Aib]EGTFISDYSIALDR[Aib]HQ[Aib]NFVNW[Iva]LAQRPSSGAPPK([Gly-Gly-Gly-Gly-Gly-γGlu-C20 diacid])S
# modifications: ends and bridges not checked
# B6: Compound No. 448 (peptide)
# peptide: Y[Aib]EGTFISDYSIALDR[Aib]HQ[Aib]NFVNW[Iva]LAQRPSSK([Gly-Gly-Gly-Gly-Gly-γGlu-C18 diacid])APPPS
# modifications: ends and bridges not checked
# B7: Compound No. 441 (peptide)
# peptide: Y[Aib]EGTFISDYSIALDR[Aib]HQ[Aib]NFVNW[Iva]LAQRPK([Gly-Gly-Gly-Gly-Gly-γGlu-C16 diacid])SGAPPPS
# modifications: ends and bridges not checked
# B8: Compound No. 456 (peptide)
# peptide: Y[Aib]EGTFISDYSIALDR[Aib]HQ[Aib]NFVNW[Iva]LAQRPSSGAPK([Gly-Gly-Gly-Gly-Gly-γGlu-C16 diacid])PS
# modifications: ends and bridges not checked
# B9: Compound No. 460 (peptide)
# peptide: Y[Aib]EGTFISDYSIALDR[Aib]HQ[Aib]NFVNW[Iva]LAQRPSSGAPPK([Gly-Gly-Gly-Gly-Gly-γGlu-C18 diacid])S
# modifications: ends and bridges not checked
# B10: Compound No. 446 (peptide)
# peptide: Y[Aib]EGTFISDYSIALDR[Aib]HQ[Aib]NFVNW[Iva]LAQRPSK([Gly-Gly-Gly-Gly-Gly-γGlu-C20 diacid])GAPPPS
# modifications: ends and bridges not checked
# B11: Compound No. 450 (peptide)
# peptide: Y[Aib]EGTFISDYSIALDR[Aib]HQ[Aib]NFVNW[Iva]LAQRPSSGK([Gly-Gly-Gly-Gly-Gly-γGlu-C16 diacid])PPPS
# modifications: ends and bridges not checked
# B12: Compound No. 444 (peptide)
# peptide: Y[Aib]EGTFISDYSIALDR[Aib]HQ[Aib]NFVNW[Iva]LAQRPSK([Gly-Gly-Gly-Gly-Gly-γGlu-C16 diacid])GAPPPS
# modifications: ends and bridges not checked
# B13: Compound No. 447 (peptide)
# peptide: Y[Aib]EGTFISDYSIALDR[Aib]HQ[Aib]NFVNW[Iva]LAQRPSSK([Gly-Gly-Gly-Gly-Gly-γGlu-C16 diacid])APPPS
# modifications: ends and bridges not checked
# B14: Compound No. 453 (peptide)
# peptide: Y[Aib]EGTFISDYSIALDR[Aib]HQ[Aib]NFVNW[Iva]LAQRPSSGAK([Gly-Gly-Gly-Gly-Gly-γGlu-C16 diacid])PPS
# modifications: ends and bridges not checked
# B15: Compound No. 452 (peptide)
# peptide: Y[Aib]EGTFISDYSIALDR[Aib]HQ[Aib]NFVNW[Iva]LAQRPSSGK([Gly-Gly-Gly-Gly-Gly-γGlu-C20 diacid])PPPS
# modifications: ends and bridges not checked
# B16: Compound No. 443 (peptide)
# peptide: Y[Aib]EGTFISDYSIALDR[Aib]HQ[Aib]NFVNW[Iva]LAQRPK([Gly-Gly-Gly-Gly-Gly-γGlu-C20 diacid])SGAPPPS
# modifications: ends and bridges not checked
# B17: Compound No. 445 (peptide)
# peptide: Y[Aib]EGTFISDYSIALDR[Aib]HQ[Aib]NFVNW[Iva]LAQRPSK([Gly-Gly-Gly-Gly-Gly-γGlu-C18 diacid])GAPPPS
# modifications: ends and bridges not checked
# B18: Compound No. 442 (peptide)
# peptide: Y[Aib]EGTFISDYSIALDR[Aib]HQ[Aib]NFVNW[Iva]LAQRPK([Gly-Gly-Gly-Gly-Gly-γGlu-C18 diacid])SGAPPPS
# modifications: ends and bridges not checked
# B19: Compound No. 462 (peptide)
# peptide: Y[Aib]EGTFISDYSIALDR[Aib]HQ[Aib]NFVNW[Iva]LAQRPSSGAPPPK([Gly-Gly-Gly-Gly-Gly-γGlu-C16 diacid])
# modifications: ends and bridges not checked
# B20: Compound No. 451 (peptide)
# peptide: Y[Aib]EGTFISDYSIALDR[Aib]HQ[Aib]NFVNW[Iva]LAQRPSSGK([Gly-Gly-Gly-Gly-Gly-γGlu-C18 diacid])PPPS
# modifications: ends and bridges not checked
# B21: Compound No. 455 (peptide)
# peptide: Y[Aib]EGTFISDYSIALDR[Aib]HQ[Aib]NFVNW[Iva]LAQRPSSGAK([Gly-Gly-Gly-Gly-Gly-γGlu-C20 diacid])PPS
# modifications: ends and bridges not checked
# B22: Compound No. 463 (peptide)
# peptide: Y[Aib]EGTFISDYSIALDR[Aib]HQ[Aib]NFVNW[Iva]LAQRPSSGAPPPK([Gly-Gly-Gly-Gly-Gly-γGlu-C18 diacid])
# modifications: ends and bridges not checked
# B23: Compound No. 454 (peptide)
# peptide: Y[Aib]EGTFISDYSIALDR[Aib]HQ[Aib]NFVNW[Iva]LAQRPSSGAK([Gly-Gly-Gly-Gly-Gly-γGlu-C18 diacid])PPS
# modifications: ends and bridges not checked
# B24: Compound No 913 (peptide)
# peptide: Y[Aib]EGTFISDYSIALDR[Aib]HQ[Aib]NFVNW[Iva]LAQRK([PEG3′-PEG3′-C20 diacid])SSGAPPPSR
# modifications: ends and bridges not checked
# Target: T1, full-length human GIPR (GenBank …)
# Assay: cell-based or functional assay
row,Binder,GIP EC50(pM)
1,B1,0.65
2,B2,1.31
3,B3,0.82
4,B4,0.41
5,B5,1.3
6,B6,0.54
7,B7,0.33
8,B8,0.57
9,B9,0.44
10,B10,0.85
11,B11,0.4
12,B12,0.39
13,B13,0.31
14,B14,0.6
15,B15,2.17
16,B16,0.86
17,B17,0.38
18,B18,1.01
19,B19,0.35
20,B20,0.74
21,B21,2.24
22,B22,0.52
23,B23,1.14

# Target: T2, full-length human GLP-1R (GenBank …)
# Assay: cell-based or functional assay
row,Binder,GLP EC50 [nM]
1,B1,912
2,B2,> 1000
3,B3,> 1000
4,B4,> 1000
5,B24,575
6,B5,> 1000
7,B6,> 1000
8,B7,> 1000
9,B8,> 1000
10,B9,> 1000
11,B10,891
12,B11,> 1000
13,B12,> 1000
14,B13,> 1000
15,B14,> 1000
16,B15,> 1000
17,B16,977
18,B17,> 1000
19,B18,> 1000
20,B19,> 1000
21,B20,> 1000
22,B21,> 1000
23,B22,> 1000
24,B23,> 1000

# — patent US20220135638A1 (Takeda / Millennium, published 2022)
